For 1 molecule, Kd results are on record in PMC4414246.

Among the targets are dK50dM51 E19S (UniProt P09012 10-89, E19S;del50-51); U1A L49K (UniProt P09012 10-89, L49K); U1A K50A (UniProt P09012 10-89, K50A); dK50dM51 N16A (UniProt P09012 10-89, N16A;del50-51); dK50dM51 S48A (UniProt P09012 10-89, S48A;del50-51); U1A E19K (UniProt P09012 10-89, E19K); U1A M51A:E19A (UniProt P09012 10-89, E19A;M51A); U1A L49A:E19A (UniProt P09012 10-89, E19A;L49A); U1A M51N (UniProt P09012 10-89, M51N); U1A E19S:N15V (UniProt P09012 10-89, N15V;E19S); U1A L49S (UniProt P09012 10-89, L49S); U1A L49N (UniProt P09012 10-89, L49N); U1A L49F (UniProt P09012 10-89, L49F); dK50dM51 N15A (UniProt P09012 10-89, N15A;del50-51); U1A L49A:N15V (UniProt P09012 10-89, N15V;L49A); U1A E19A:F56A (UniProt P09012 10-89, E19A;F56A); dK50dM51 (UniProt P09012 10-89, del50-51); dK50dM51 L49A (UniProt P09012 10-89, L49A;del50-51); U1A E19F:Y13Q (UniProt P09012 10-89, Y13Q;E19F); dK50dM51 E19N (UniProt P09012 10-89, E19N;del50-51); U1A M51A (UniProt P09012 10-89, M51A); U1A S48A (UniProt P09012 10-89, S48A); U1A (UniProt P09012 10-89); U1A E19A (UniProt P09012 10-89, E19A).

Common to all, as to test: fluorescence polarization

B1: TAR RNA (structured_RNA)
RNA: GGCAGAUCUGAGCCUGGGAGCUCUCUGCC
Broadly, the Kd is a measure of binding affinity in units of concentration. Consider B1, for which the Kd with dK50dM51 E19S came out at 7 ± 1.9 µM; with U1A L49K, 3.9 ± 0.4 µM; with U1A K50A, 39.6 ± 12.2 µM; with dK50dM51 N16A, 62.1 ± 5.4 µM; with dK50dM51 S48A it was 33.9 ± 15.9 µM; with U1A E19K it was 5.9 ± 0.4 µM. Besides, the equilibrium dissociation constant (Kd) with U1A M51A:E19A came out at 14.9 ± 2.5 µM; with U1A L49A:E19A, 6.9 ± 0.8 µM; with U1A M51N, 13.8 ± 1.6 µM; in the data set with U1A E19S:N15V, 11.3 ± 0.8 µM; with U1A L49S, 12.4 ± 2.3 µM; in the data set with U1A L49N, 14.4 ± 2.1 µM. Moreover, the Kd is 24.1 ± 4.3 µM with U1A L49F; 91.1 ± 8.8 µM in the data set with dK50dM51 N15A; 39.2 ± 9.6 µM in the data set with U1A L49A:N15V; 29.2 ± 6.3 µM with U1A E19A:F56A; 15.9 ± 2.3 µM with dK50dM51; 91.6 ± 39.7 µM in the data set with dK50dM51 L49A. In addition, the Kd in the data set with U1A E19F:Y13Q stood at 58 ± 24.1 µM; in the data set with dK50dM51 E19N it was 27.8 ± 3.2 µM; with U1A M51A it was 4.9 ± 0.6 µM; with U1A S48A it was 14.2 ± 1.3 µM; in the data set with U1A it was 19.1 ± 4.9 µM; with U1A E19A, 5.9 ± 0.8 µM.
